Test results reported in US20240360248A1 (NANOMAB TECHNOLOGY, published 2024).
Changes are numbered by the printed parent chain.

T1: human PTK7-Fc protein antigen (human, UniProt Q13308 31-704)
T1 construct: extracellular domain; also called human PTK7 extracellular segment protein; not shown: Fc from the pFUSE-IgG recombinant plasmid
T1 sequence (looked up): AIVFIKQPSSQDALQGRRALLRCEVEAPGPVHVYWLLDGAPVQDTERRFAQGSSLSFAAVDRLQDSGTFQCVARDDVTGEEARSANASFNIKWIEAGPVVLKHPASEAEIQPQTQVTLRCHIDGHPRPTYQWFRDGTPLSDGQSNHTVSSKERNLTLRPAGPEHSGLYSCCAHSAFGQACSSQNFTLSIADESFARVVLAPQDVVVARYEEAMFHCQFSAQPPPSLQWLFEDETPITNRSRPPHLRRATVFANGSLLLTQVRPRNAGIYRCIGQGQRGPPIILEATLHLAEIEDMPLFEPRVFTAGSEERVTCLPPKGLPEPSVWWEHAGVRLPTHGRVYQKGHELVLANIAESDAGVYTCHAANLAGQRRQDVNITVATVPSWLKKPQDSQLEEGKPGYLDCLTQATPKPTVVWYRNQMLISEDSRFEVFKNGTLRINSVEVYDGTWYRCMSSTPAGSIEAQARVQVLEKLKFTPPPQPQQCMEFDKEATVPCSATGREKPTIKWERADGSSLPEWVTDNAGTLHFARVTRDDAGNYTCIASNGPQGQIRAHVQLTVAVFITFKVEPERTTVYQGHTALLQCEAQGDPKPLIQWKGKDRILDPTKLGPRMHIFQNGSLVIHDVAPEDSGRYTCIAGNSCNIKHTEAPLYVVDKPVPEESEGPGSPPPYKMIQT

T2: PTK7-Fc antigen protein from mouse species (mouse, UniProt Q8BKG3 23-696, limits assumed)
T2 construct: also called Mouse PTK7; not shown: Fc
T2 sequence (looked up): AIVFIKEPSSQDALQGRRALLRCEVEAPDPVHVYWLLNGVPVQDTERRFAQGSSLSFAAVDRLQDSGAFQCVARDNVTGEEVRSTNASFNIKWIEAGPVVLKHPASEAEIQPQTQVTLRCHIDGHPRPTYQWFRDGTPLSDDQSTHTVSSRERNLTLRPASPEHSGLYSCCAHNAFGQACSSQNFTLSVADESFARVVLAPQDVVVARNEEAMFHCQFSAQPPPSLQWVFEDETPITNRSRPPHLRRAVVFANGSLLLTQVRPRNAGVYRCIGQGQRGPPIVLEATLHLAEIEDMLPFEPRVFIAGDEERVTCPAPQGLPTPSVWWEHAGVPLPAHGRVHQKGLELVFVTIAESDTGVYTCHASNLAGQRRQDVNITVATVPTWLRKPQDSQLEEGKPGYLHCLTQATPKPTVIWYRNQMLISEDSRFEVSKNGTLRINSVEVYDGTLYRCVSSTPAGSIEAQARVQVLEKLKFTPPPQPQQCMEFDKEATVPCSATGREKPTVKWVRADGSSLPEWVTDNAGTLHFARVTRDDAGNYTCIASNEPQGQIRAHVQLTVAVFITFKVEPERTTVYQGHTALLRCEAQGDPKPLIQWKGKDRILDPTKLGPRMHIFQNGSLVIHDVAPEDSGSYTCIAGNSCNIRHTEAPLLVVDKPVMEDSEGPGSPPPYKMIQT

T3: PTK7-His antigen protein from rhesus monkey species (rhesus monkey, UniProt F7G3Z5 39-712)
T3 construct: also called Rhesus monkey PTK7; not shown: His tag
T3 sequence: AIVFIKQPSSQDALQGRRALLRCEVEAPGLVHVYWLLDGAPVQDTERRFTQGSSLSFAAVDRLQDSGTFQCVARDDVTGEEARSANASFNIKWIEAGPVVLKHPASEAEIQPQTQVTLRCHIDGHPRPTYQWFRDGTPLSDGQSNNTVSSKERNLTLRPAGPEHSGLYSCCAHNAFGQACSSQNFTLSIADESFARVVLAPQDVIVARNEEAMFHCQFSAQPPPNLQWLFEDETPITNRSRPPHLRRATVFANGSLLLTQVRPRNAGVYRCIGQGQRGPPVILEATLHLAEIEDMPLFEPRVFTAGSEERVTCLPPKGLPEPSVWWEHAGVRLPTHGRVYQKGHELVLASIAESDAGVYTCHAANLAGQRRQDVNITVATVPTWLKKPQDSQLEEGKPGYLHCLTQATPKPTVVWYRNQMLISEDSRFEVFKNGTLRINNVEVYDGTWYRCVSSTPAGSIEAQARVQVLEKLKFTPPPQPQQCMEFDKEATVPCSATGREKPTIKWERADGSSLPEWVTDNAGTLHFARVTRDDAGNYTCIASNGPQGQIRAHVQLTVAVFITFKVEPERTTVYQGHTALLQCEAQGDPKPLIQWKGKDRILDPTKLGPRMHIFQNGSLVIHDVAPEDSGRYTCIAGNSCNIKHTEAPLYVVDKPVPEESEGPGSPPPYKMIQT

B1: MY2132-4-55 (VHH)
VHH: QVQLQESGGGSVQAGGSLRLSCAASGYIWSRYCMGWFRQAPGKAREGVARFNSDGNTRYVDSVKGRFTISRDNAKNTLYLQMNNLQPEDTARYYCAADPRFDCGYDAVFNPTHFPYWGRGTQVTVSS
notes: Camel VHH expressed in E. coli WK6 and purified on a nickel column; also called MY2132-4-55 VHH; anti-PTK7 single domain antibody
B2: MY2132-4-79 (VHH)
VHH: B1 VHH with R119Q
notes: Camel VHH expressed in E. coli WK6 and purified on a nickel column; also called MY2132-4-79 VHH; anti-PTK7 single domain antibody
B3: MY2132-5-51 (VHH)
VHH: QVQLQESGGGLVQPGGSLTLACAASGFAFSSYAMRWVRQAPGKGLEGVSSISAGGDETYYADFAKGRFTISRDNAKNTLYLQLNSLKTEDTAMYYCAKGDRNSPRYSSWPITPVGQGTQVTVSS
notes: Camel VHH expressed in E. coli WK6 and purified on a nickel column; also called MY2132-5-51 VHH; anti-PTK7 single domain antibody
B4: MY2132-4-22 (VHH)
VHH: QVQLQESGGGSVQAGGSLRLSCTASGFTFDDYDMVWYRQAPGNEYEWLSTVSRGGNLYYADSVKGRFTISRDNAKNTVYLNMSRVKPEDTAVYYCAADLRSVPSTYRARTCRGRYCRDYWGQGTQVTVSS
notes: Camel VHH expressed in E. coli WK6 and purified on a nickel column; also called MY2132-4-22 VHH; anti-PTK7 single domain antibody

These binders were tested against T1, human PTK7-Fc protein antigen (assay: SPR (Biacore 8K), human PTK7-Fc amine-coupled on CM-5 chip, VHH as analyte).
Experimental: The fixed phase human PTK7-Fc antigen proteins were fixed on the surface of CM-5 sensing chip using carboxyl amino reaction. The anti-PTK7 single domain antibodies were diluted with HBS buffer to different concentrations, and the anti-PTK7 single domain antibodies were added at a flow rate of 30 μl/min, binding for 90 seconds, dissociating for 600 seconds, and the binding process between the anti-PTK7 single domain antibody and the antigen was observed. After rinsing with 10 mM glycine solution for chip regeneration, the next anti-PTK7 single domain antibody assay was proceeded.

Row | Kd | koff | kon | Binder
1 | 0.18 nM | 0.000314 s⁻¹ | 1.76e+06 M⁻¹ s⁻¹ | B1
2 | 0.22 nM | 0.000358 s⁻¹ | 1.64e+06 M⁻¹ s⁻¹ | B2
3 | 3.45 nM | 0.00166 s⁻¹ | 482000 M⁻¹ s⁻¹ | B3
4 | 2.13 nM | 0.0322 s⁻¹ | 1.51e+07 M⁻¹ s⁻¹ | B4

What follows are binders tested against T1, human PTK7-Fc protein antigen (assay: ELISA, antigen coated on plate, VHH in gradient dilution, anti-His/anti-HA-HRP; Kd calculated from absorbance at 450 nm).
Experimental: (§1) The ELISA plates were coated with PTK7-Fc antigen proteins from human, or mouse species, or PTK7-His antigen protein from rhesus monkey species, overnight at 4° C. The plates were washed for 4 times with PBS-T the next day, added with 1% BSA, and blocked at room temperature for 2 hours. The plates were washed for 4 times with PBS-T, added with the anti-PTK7 single domain antibodies diluted in gradient, and kept at 37° C. for 1 hour. The plates were washed for 4 times with PBS-T, added with mouse anti-His-HRP antibody or mouse anti-HA-HRP antibody, and kept at 37° C. for 1 hour. The plates were washed for 4 times with PBS-T, added with TMB soluble substrate, and kept at room temperature for 10 minutes. The absorption value was read at a wavelength of 450 nm and the Kd value of each single domain antibody was calculated based on the absorption value.
(§2) The anti-PTK7 single domain antibodies of the present invention can bind to human, mouse or rhesus monkey PTK7.

Row | EC50 | Binder
5 | 0.49 nM | B1
6 | 0.59 nM | B2
7 | 0.61 nM | B3
8 | 0.33 nM | B4

Each binder was assayed against T2, PTK7-Fc antigen protein from mouse … in the same assay as above.
Experimental: as §1, §2

Row | EC50 | Binder
9 | 12.7 nM | B4

The binders below were run against T3, PTK7-His antigen protein from rhesus … in the same assay as above.
Experimental: as §1, §2

Row | EC50 | Binder
10 | 1.03 nM | B3
11 | 0.3 nM | B4
